Laboratory results from IntAct's records for PubMed 27832861.

B1: Aquaporin-7 (Homo sapiens), O14520 (parent)
chain: MVQASGHRRSTRGSKMVSWSVIAKIQEILQRKMVREFLAEFMSTYVMMVFGLGSVAHMVLNKKYGSYLGVNLGFGFGVTMGVHVAGRISGAHMNAAVTFANCALGRVPWRKFPVYVLGQFLGSFLAAATIYSLFYTAILHFSGGQLMVTGPVATAGIFATYLPDHMTLWRGFLNEAWLTGMLQLCLFAITDQENNPALPGTEALVIGILVVIIGVSLGMNTGYAINPSRDLPPRIFTFIAGWGKQVFSNGENWWWVPVVAPLLGAYLGGIIYLVFIGSTIPREPLKLEDSVAYEDHGITVLPKMGSHEPTISPLTPVSVSPANRSSVHPAPPLHESMALEHF
partner: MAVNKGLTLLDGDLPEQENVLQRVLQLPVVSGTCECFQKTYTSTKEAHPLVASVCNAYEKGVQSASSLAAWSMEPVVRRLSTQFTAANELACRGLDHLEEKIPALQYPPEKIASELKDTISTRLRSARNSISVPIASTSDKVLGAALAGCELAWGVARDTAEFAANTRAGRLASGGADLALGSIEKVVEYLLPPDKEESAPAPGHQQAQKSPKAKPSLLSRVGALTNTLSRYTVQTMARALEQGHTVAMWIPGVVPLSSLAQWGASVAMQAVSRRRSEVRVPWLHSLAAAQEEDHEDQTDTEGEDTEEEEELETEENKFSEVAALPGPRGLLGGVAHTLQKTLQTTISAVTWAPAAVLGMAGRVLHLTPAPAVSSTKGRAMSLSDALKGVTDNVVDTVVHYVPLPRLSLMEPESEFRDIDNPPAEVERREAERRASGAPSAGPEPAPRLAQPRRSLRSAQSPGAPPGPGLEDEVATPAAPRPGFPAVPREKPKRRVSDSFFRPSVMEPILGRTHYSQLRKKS

Variants of: B1
Conditions: with plin1_human PLIN1, O60240

| effect of a mutation on the interaction | Variant |
| --- | --- |
| disrupting interaction strength | S10A;T11A |
